Data on four substances can be found in PMC6839005.

Holding throughout (assay): SPR
On the technique in general: In SPR one partner is held on a chip, and binding of the other changes the refractive index at the surface.

The target of experiment [1] is Recombinant HIV-1 gp120 SF162 (Clade B) (HIV-1 SF162 (Clade B)).
In experiment [2] the target is Recombinant HIV-1 gp120 ZM53M.PB12 (HIV-1 ZM53M.PB12 (Clade C)).
Experiment [3] addresses Human IgG1κ isotype control (human).

Take “AvFc (lectibody: Avaren fused to the Fc region of human IgG1) (from UniProt Q9KWN0 47-160) (Fc fusion)”: the fold increase in affinity compared to AH in experiment [1] and in experiment [2] was 10 fold in each case.
The substance “Recombinant human Fc gamma receptor IIIA (FcγRIIIa, CD16) (from UniProt P08637 17-254)” registered a Kd in experiment [3] of 680 nM.
“Neonatal Fc receptor (FcRn) (from UniProt P55899 24-365)” had a Kd in experiment [3] of 18 nM.
Regarding “Recombinant human Fc gamma receptor IA (FcγRI, CD64) (from UniProt P12314 16-374)”, the Kd in experiment [3] stood at 0.11 nM.

The term Kd denotes the constant that tells how readily two partners part at equilibrium. A higher Kd goes with a looser complex.
